This is an account of results in article PMC3718800, “Structural and Functional Perturbation of Giardia lamblia Triosephosphate Isomerase by Modification of a Non-Catalytic, Non-Conserved Region” (PLoS ONE, 2013).

This data set in a line: TIM activity coupled assay, kinetic constants of WT GlTIM and C222 mutants with GAP. It is filed as biochemical, Giardia lamblia. On the procedure: Glyceraldehyde 3-phosphate (GAP), buffers, salts and all the other analytical grade reagents were acquired from Sigma–Aldrich; α-glycerol-3-phosphate dehydrogenase (α-GDH) was from Roche, crystallization screen kits were obtained from Hampton Research. Restriction enzymes, DNA polymerase and T4 DNA ligase were purchased from New England BioLabs and Invitrogene. Oligonucleotide synthesis and DNA sequencing was performed at the Unidad de Biología Molecular, Instituto de Fisiología Celular, UNAM. Protein concentration was determined by the bicinchoninic acid method or by absorbance at 280 nm for pure GlTIM (ε280 = 26600 M^-1cm^-1). The TIM activity was determined at 25°C by a coupled assay, following the decrease in absorbance at 340 nm. The standard reaction mixture contained 100 mM triethanolamine/10 mM EDTA, pH 7.4 (TE buffer), 1 mM GAP, 0.2 mM NADH, and 0.9 units of α-GDH (20 μg/mL); the reaction was initiated by addition of 5 ng/mL of WT, C222V or C222M GlTIM, 10 ng/mL of C222N, 20 ng/mL of C222D or C222F, and 200 ng/mL of C222K. Kinetic, binding and stability data were analyzed by non-linear regression calculations with Origin software.
Determination of Km and Vmax was performed by fitting initial velocity data at GAP concentrations ranging from 0.3 to 3 mM to the Michaelis-Menten equation (v = Vmax•S/Km+S) by non-linear regression calculations. […]

B1: GlTIM: recombinant wild type triosephosphate isomerase of Giardia lamblia (protein, UniProt P36186 1-257, looked up)
Triosephosphate isomerase: MPARRPFIGGNFKCNGSLDFIKSHVAAIAAHKIPDSVDVVIAPSAVHLSTAIAANTSKQLRIAAQNVYLEGNGAWTGETSVEMLQDMGLKHVIVGHSERRRIMGETDEQSAKKAKRALEKGMTVIFCVGETLDERKANRTMEVNIAQLEALGKELGESKMLWKEVVIAYEPVWSIGTGVVATPEQAEEVHVGLRKWFAEKVCAEGAQHIRIIYGGSANGSNCEKLGQCPNIDGFLVGGASLKPEFMTMIDILTKTRT
Broadly, the Vmax is the rate approached at saturating substrate. In the case of B1, the Vmax (GAP 0.3 to 3 mM, 25°C, pH 7.4) was 8050 ± 444 µmol/min/mg. In addition, the “kcat x 10^5” value (calculated from Vmax, molecular mass 27.7 kDa) was 4.4 x 10^5 min^-1.
